Measured values published in patent US20110135647A1 (ONCOTHERAPY SCIENCE, published 2011).

Tests used:
[1] = target: T1, myc-tagged p97 (p97/VCP-myc-6×His) (human, UniProt P55072 1-806); assay: co-immunoprecipitation with HA-tag antibody from co-transfected cells
T1 construct: Expressed in COS-7 cells; also called myc-p97; p97/VCP-myc-His; not shown: C-terminal myc-6×His tag of pcDNA3.1-myc-His

[2] = target: T2, GST-tagged PP1α (GST-PP1α) (human, UniProt P62136 1-330); assay: anti-HA immunoprecipitation from co-transfected COS-7 cells, anti-GST blot
T2 construct: also called GST-fused PP1α; not shown: glutathione S-transferase (GST) tag of the pCAGGS-nGST vector, N-terminal
T2 sequence (P62136 whole entry, the tested form may be a part): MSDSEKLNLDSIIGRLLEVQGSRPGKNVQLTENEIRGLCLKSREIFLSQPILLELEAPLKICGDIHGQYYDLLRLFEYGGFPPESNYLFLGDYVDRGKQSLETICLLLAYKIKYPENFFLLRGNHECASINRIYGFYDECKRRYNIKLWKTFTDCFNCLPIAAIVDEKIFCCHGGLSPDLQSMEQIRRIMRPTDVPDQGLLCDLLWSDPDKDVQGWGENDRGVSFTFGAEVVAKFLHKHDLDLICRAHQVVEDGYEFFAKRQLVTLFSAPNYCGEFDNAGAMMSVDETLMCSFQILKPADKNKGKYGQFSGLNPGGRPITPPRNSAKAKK

[3] = target: T3, HA-tagged A7322 (A7322-HA) (human, UniProt Q5TH69 1-2177); assay: co-immunoprecipitation from co-transfected COS-7 cells, anti-FLAG IP / anti-HA blot and the reverse
T3 construct: Expressed in COS-7 cells for the ERα co-immunoprecipitation; not shown: HA tag
T3 sequence (Q5TH69 whole entry): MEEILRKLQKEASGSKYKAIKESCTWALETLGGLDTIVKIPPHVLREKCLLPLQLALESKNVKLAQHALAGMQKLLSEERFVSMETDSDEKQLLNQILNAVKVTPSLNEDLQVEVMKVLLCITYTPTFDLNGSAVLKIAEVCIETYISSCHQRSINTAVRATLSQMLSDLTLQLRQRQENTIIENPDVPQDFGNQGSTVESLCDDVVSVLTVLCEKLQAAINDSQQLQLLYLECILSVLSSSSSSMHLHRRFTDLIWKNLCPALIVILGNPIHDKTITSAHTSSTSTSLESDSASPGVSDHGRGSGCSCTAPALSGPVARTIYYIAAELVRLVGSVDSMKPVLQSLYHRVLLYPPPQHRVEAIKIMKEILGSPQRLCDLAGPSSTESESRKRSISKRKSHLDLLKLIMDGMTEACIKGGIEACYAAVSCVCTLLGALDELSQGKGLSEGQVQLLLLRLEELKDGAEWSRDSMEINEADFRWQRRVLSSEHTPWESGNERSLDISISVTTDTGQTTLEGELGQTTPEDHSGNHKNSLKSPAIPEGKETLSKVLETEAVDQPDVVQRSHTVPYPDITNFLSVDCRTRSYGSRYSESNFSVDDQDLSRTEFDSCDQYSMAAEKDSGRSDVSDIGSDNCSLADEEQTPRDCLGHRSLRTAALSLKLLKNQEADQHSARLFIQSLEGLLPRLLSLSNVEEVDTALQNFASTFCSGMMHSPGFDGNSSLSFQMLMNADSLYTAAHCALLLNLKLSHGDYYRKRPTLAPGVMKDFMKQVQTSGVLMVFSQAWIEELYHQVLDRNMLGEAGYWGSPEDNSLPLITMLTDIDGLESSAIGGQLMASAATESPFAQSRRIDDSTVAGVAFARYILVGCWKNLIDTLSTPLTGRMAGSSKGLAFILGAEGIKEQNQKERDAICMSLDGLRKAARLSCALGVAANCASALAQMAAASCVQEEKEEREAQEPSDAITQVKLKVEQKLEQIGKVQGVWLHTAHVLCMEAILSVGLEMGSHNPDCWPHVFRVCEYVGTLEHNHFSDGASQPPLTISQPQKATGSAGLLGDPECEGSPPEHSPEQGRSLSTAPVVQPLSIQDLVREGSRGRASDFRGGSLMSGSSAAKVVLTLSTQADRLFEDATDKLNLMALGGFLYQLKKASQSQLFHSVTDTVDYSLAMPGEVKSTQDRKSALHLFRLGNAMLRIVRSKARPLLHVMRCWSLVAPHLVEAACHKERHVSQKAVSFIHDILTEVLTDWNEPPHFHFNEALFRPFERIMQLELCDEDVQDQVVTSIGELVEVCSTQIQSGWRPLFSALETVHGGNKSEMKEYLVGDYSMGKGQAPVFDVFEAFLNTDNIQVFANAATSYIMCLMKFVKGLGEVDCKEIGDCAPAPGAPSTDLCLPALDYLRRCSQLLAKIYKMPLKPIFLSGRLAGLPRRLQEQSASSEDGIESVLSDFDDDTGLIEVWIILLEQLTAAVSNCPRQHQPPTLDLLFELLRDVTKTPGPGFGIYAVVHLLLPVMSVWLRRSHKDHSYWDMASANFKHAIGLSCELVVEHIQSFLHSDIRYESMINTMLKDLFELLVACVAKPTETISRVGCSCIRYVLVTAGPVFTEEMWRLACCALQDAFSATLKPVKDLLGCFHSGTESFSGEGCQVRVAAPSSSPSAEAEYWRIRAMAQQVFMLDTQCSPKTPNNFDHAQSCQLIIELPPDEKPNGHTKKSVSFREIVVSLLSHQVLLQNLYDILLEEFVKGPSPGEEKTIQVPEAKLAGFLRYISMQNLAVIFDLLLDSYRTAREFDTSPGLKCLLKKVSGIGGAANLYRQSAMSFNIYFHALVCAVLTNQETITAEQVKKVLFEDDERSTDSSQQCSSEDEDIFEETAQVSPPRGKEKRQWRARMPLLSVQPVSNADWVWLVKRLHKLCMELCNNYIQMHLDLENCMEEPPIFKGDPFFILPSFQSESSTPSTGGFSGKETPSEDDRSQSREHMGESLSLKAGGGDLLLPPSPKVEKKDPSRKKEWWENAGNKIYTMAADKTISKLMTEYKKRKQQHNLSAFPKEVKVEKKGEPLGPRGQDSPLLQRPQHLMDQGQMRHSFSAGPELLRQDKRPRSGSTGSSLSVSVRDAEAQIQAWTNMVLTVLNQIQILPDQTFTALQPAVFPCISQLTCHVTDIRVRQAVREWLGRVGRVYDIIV

T1 sequence (P55072 whole entry): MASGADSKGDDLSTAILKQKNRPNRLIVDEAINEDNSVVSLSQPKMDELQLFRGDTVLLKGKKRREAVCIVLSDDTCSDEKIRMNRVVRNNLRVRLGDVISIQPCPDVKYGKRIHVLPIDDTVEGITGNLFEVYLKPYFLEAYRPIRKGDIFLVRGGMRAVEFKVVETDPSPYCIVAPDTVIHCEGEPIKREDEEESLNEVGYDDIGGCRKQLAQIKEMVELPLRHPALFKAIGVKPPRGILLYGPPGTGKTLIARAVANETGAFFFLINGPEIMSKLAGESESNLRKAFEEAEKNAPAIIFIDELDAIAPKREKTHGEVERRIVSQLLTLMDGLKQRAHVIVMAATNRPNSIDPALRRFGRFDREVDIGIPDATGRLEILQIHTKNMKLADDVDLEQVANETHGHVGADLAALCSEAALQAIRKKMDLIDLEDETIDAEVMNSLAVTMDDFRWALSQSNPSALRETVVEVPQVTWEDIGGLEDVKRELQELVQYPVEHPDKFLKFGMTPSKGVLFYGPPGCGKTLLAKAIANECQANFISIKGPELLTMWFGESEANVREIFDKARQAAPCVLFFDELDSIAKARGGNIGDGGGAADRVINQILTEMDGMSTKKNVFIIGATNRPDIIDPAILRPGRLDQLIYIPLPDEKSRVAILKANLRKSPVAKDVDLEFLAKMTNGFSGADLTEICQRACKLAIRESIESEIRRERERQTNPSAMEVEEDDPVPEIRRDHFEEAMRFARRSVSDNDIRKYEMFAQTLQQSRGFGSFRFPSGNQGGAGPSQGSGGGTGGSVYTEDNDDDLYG

B1: HA-tagged PBK/TOPK (HA-PBK/TOPK), wild type (enzyme)
chain: MEGISNFKTPSKLSEKKKSVLCSTPTINIPASPFMQKLGFGTGVNVYLMKRSPRGLSHSPWAVKKINPICNDHYRSVYQKRLMDEAKILKSLHHPNIVGYRAFTEANDGSLCLAMEYGGEKSLNDLIEERYKASQDPFPAAIILKVALNMARGLKYLHQEKKLLHGDIKSSNVVIKGDFETIKICDVGVSLPLDENMTVTDPEACYIGTEPWKPKEAVEENGVITDKADIFAFGLTLWEMMTLSIPHINLSNDDDDEDKTFDESDFDDEAYYAALGTRPPINMEELDESYQKVIELFSVCTNEDPKDRPSAAHIVEALETDV
notes: Expressed in COS-7 or T47D cells; also called HA-tagged TOPK; WT; not shown: N-terminal HA tag (pCAGGSnHA)
B1: no binding [1]; binds [2].

B2: FLAG-tagged ERα (ERα-FLAG) (receptor, UniProt P03372 1-595, looked up)
chain: MTMTLHTKASGMALLHQIQGNELEPLNRPQLKIPLERPLGEVYLDSSKPAVYNYPEGAAYEFNAAAAANAQVYGQTGLPYGPGSEAAAFGSNGLGGFPPLNSVSPSPLMLLHPPPQLSPFLQPHGQQVPYYLENEPSGYTVREAGPPAFYRPNSDNRRQGGRERLASTNDKGSMAMESAKETRYCAVCNDYASGYHYGVWSCEGCKAFFKRSIQGHNDYMCPATNQCTIDKNRRKSCQACRLRKCYEVGMMKGGIRKDRRGGRMLKHKRQRDDGEGRGEVGSAGDMRAANLWPSPLMIKRSKKNSLALSLTADQMVSALLDAEPPILYSEYDPTRPFSEASMMGLLTNLADRELVHMINWAKRVPGFVDLTLHDQVHLLECAWLEILMIGLVWRSMEHPGKLLFAPNLLLDRNQGKCVEGMVEIFDMLLATSSRFRMMNLQGEEFVCLKSIILLNSGVYTFLSSTLKSLEEKDHIHRVLDKITDTLIHLMAKAGLTLQQQHQRLAQLLLILSHIRHMSNKGMEHLYSMKCKNVVPLYDLLLEMLDAHRLHAPTSRGGASVEETDQSHLATAGSTSSHSLQKYYITGEAEGFPATV
notes: Expressed in COS-7 cells; also called FLAG-ERα; estrogen receptor α; not shown: FLAG tag
B2: no binding [3].
